How the values were obtained:
[1] = molecular target: T1, 内源过表达的组蛋白H1.4(WT H1.4), Flag fusion expressed from pFLAG-CMV-WT H1.4 in NIH 3T3 cells; test: Western blot, lysate of transfected NIH 3T3 cells
T1 construct: Overexpressed in mouse NIH 3T3 cells; Tested as SDS cell lysate (50 ug total protein) by Western blot; also called 野生型H1.4

[2] = molecular target: T2, 体外纯化的组蛋白H1.4(WT H1.4), fusion protein expressed from pET-28a-WT H1.4 (Homo sapiens (Human), UniProt P10412 1-219); test: Western blot, purified protein
T2 construct: Expressed in E. coli BL21(DE3) and purified; 100 ng was loaded, denatured, for the Western blot; also called 野生型H1.4

[3] = molecular target: T3, 体外纯化的H1.4移码突变蛋白(H1.4 K157E fs*), fusion protein expressed from pET-28a-H1.4 K157E; test: Western blot, 100 ng purified protein
T3 construct: Expressed in E. coli BL21(DE3) and purified; 100 ng was loaded, denatured, for the Western blot; also called Lys157Glu fs*39; H1.4 K157E移码突变体
T3 chain: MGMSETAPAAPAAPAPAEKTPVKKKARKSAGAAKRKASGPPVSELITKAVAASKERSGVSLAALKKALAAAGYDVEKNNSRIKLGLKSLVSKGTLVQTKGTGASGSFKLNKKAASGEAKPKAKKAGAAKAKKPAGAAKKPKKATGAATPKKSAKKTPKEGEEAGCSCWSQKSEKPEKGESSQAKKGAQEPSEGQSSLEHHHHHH

B1: 特异性结合H1.4移码突变蛋白的单克隆抗体 (hybridoma cell line A1) (antibody, mouse IgG1, kappa, V domains shown)
VH: QIQLVQSGPELKKPGETVKISCKASGYTFTDYSMQWMKQAPGKGLKWMGWIDTGTGEPSYADDFKGRFAFSLETSASTAYLQINNLKNEDTATYFCARRSYGYFAFWGQGTLVAVSA
VL: DVVMTQTPLSLPVSLGDQASISCRSSQNIVHVNGNTYLEWYLQKPGQSPKLLIYKVSNRFSGVPDRFSGSGSGTEFTLKISRVEAEDLGVYYCFQGSHVPFTFGAGTKLELKR
notes: also called H1.4移码突变抗体; H1.4移码突变的抗体
- binding result [1]: no binding (tested: 50μg total lysate protein)
- binding result [2]: no binding (tested: 100ng)
- binding result [3]: binds
